According to patent publication US20060280751A1:

Legend:
[1] = molecular target: envelope glycoprotein gp120 of HIV-1 laboratory strain AD8 (HIV-1 AD8 strain); test: cell-based or functional assay
[2] = molecular target: envelope glycoprotein gp120 of HIV-1 laboratory strain 89.6 (HIV-1 89.6 strain) (UniProt Q73372); test: cell-based or functional assay
[3] = molecular target: envelope glycoprotein gp120 of HIV-1 laboratory strain MN (HIV-1 MN strain) (UniProt P05877); test: cell-based or functional assay
[4] = molecular target: envelope glycoprotein gp120 of HIV-1 laboratory strain IIIB (HIV-1 IIIB strain); test: cell-based or functional assay
[5] = molecular target: envelope glycoprotein gp120 of HIV-1 laboratory strain SF2 (HIV-1 SF2 strain); test: cell-based or functional assay
[6] = molecular target: V3/β-Gal from patients' HIV-1 clones with IGPGRAL in the middle portion of V3 region (HIV-1 from patients); test: sandwich ELISA: V3/β-Gal (200 ng/ml) captured by anti-β-Gal antibody, 1 µg/ml KD-247
[7] = molecular target: V3/β-Gal from patients' HIV-1 clones with IGPGRSF in the middle portion of V3 region (HIV-1 from patients); test: as above
[8] = molecular target: V3/β-Gal from patients' HIV-1 clones with IGPARAF in the middle portion of V3 region (HIV-1 from patients); test: as above
[9] = molecular target: V3/β-Gal from patients' HIV-1 clones with IGPGRAF in the middle portion of V3 region (HIV-1 from patients); test: as above
[10] = molecular target: V3/β-Gal from patients' HIV-1 clones with IGPGRAI in the middle portion of V3 region (HIV-1 from patients); test: as above
[11] = molecular target: V3/β-Gal from patients' HIV-1 clones with VGPGRAL in the middle portion of V3 region (HIV-1 from patients); test: as above
[12] = molecular target: V3/β-Gal from patients' HIV-1 clones with IGPGRTF in the middle portion of V3 region (HIV-1 from patients); test: as above

## KD-247, a humanized monoclonal antibody to PND region
[1]
  Neutralizing activity IC50 (p24 antigen in PBMC culture): 5 µg/mL
  Neutralizing activity IC90 (p24 antigen in PBMC culture): 10 µg/mL
[2]
  Neutralizing activity IC50 (p24 antigen in PBMC culture): 0.2 µg/mL
  Neutralizing activity IC90 (p24 antigen in PBMC culture): 2.5 µg/mL
[3]
  Neutralizing activity IC50 (p24 antigen in PBMC culture): 0.1 µg/mL
  Neutralizing activity IC90 (p24 antigen in PBMC culture): 1 µg/mL
[4]
  Neutralizing activity IC50 (p24 antigen in PBMC culture): > 50 µg/mL
  Neutralizing activity IC90 (p24 antigen in PBMC culture): > 50 µg/mL
[5]
  Neutralizing activity IC50 (p24 antigen in PBMC culture): 1 µg/mL
  Neutralizing activity IC90 (p24 antigen in PBMC culture): 5 µg/mL
[6]
  relative binding (% of V3/β-Gal from MN strain): > 100%
[7]
  relative binding (% of V3/β-Gal from MN strain): > 100%
[8]
  relative binding (% of V3/β-Gal from MN strain): > 100%
[9]
  relative binding (% of V3/β-Gal from MN strain): > 100%
[10]
  relative binding (% of V3/β-Gal from MN strain): > 100%
[11]
  relative binding (% of V3/β-Gal from MN strain): > 100%
[12]
  relative binding (% of V3/β-Gal from MN strain): > 100%
